Laboratory results published in patent publication US7998940B2, “Aptamers to von Willebrand factor and their use as thrombotic disease therapeutics” (Archemix Corp., priority 2004, dated 2011).
Residue numbers refer to the chain shown, from its start.

B1: AMX236.A11: DNA SELEX 2 aptamer clone (nucleic acid)
chain: CTACCTACGATCTGACTAGCTTGGTAGCGACTCTGTGGAGCTGCGGTCTGGCCGACGTCAGCTTACTCTCATGTAGTTCC
modifications: DNA, backbone not given here
notes: DNA SELEX 2 aptamer clone
B2: AMX237.D5: DNA SELEX 2 aptamer clone (nucleic acid)
DNA: B1 chain with T32A, C48T, C52T, C53T
modifications: DNA, backbone not given here
notes: DNA SELEX 2 aptamer clone
B3: AMX236.E6: DNA SELEX 2 aptamer clone (nucleic acid)
chain: B1 chain with T32C, C48T, C52T
modifications: DNA, backbone not given here
notes: DNA SELEX 2 aptamer clone
B4: AMX236.C12: DNA SELEX 2 aptamer clone (nucleic acid)
chain: B1 chain with T34C, C48T, C52T
modifications: DNA, backbone not given here
notes: DNA SELEX 2 aptamer clone
B5: AMX237.H10: DNA SELEX 2 aptamer clone (nucleic acid)
DNA: B1 chain with T34A, T36A, C48T, C52T
modifications: DNA, backbone not given here
notes: DNA SELEX 2 aptamer clone
B6: AMX237.H8: DNA SELEX 2 aptamer clone (nucleic acid)
DNA: B1 chain with C33T, C48T, C52T, G57A
modifications: DNA, backbone not given here
notes: DNA SELEX 2 aptamer clone
B7: AMX236.G4: DNA SELEX 2 aptamer clone (nucleic acid)
chain: B1 chain with C33T, C41A, C48T, C52T, C53T
modifications: DNA, backbone not given here
notes: DNA SELEX 2 aptamer clone
B8: AMX236.C1: DNA SELEX 2 aptamer clone (nucleic acid)
chain: CTACCTACGATCTGACTAGCGGAATGAGAATGTTGGTGGATTGCTCAGGTCTGCTGGCTGCTTACTCTCATGTAGTTCC
modifications: DNA, backbone not given here
notes: DNA SELEX 2 aptamer clone
B9: AMX238.F5: DNA SELEX 2 aptamer clone (nucleic acid)
DNA: CTACCTACGATCTGACTAGCGGAATGAGAAGCTGGTGGATTGCTCAGGTCTGCTGGCTGCTTACTCTCATGTAGTTCC
modifications: DNA, backbone not given here
notes: DNA SELEX 2 aptamer clone
B10: AMX237.C1: DNA SELEX 2 aptamer clone (nucleic acid)
DNA: B8 chain with A29G, T33C
modifications: DNA, backbone not given here
notes: DNA SELEX 2 aptamer clone
B11: AMX237.B12: DNA SELEX 2 aptamer clone (nucleic acid)
DNA: B8 chain with T33C, T34A
modifications: DNA, backbone not given here
notes: DNA SELEX 2 aptamer clone
B12: AMX238.A6: DNA SELEX 2 aptamer clone (nucleic acid)
DNA: B8 chain with T33C, T34A, G36A
modifications: DNA, backbone not given here
notes: DNA SELEX 2 aptamer clone
B13: AMX238.A11: DNA SELEX 2 aptamer clone (nucleic acid)
DNA: B8 chain with A30G
modifications: DNA, backbone not given here
notes: DNA SELEX 2 aptamer clone
B14: AMX236.C6: DNA SELEX 2 aptamer clone (nucleic acid)
chain: B8 chain with A30G, T33C
modifications: DNA, backbone not given here
notes: DNA SELEX 2 aptamer clone
B15: AMX238.F6: DNA SELEX 2 aptamer clone (nucleic acid)
DNA: B8 chain with A29T, T33C
modifications: DNA, backbone not given here
notes: DNA SELEX 2 aptamer clone
B16: AMX236.E2: DNA SELEX 2 aptamer clone (nucleic acid)
chain: B8 chain with A29T, T33C, G36A
modifications: DNA, backbone not given here
notes: DNA SELEX 2 aptamer clone
B17: AMX238.G4: DNA SELEX 2 aptamer clone (nucleic acid)
DNA: CTACCTACGATCTGACTAGCTTGTCGCACTTTTGGTTGGTCTGGTTGGTTCTAAGTGCGCTTACTCTCATGTAGTTCC
modifications: DNA, backbone not given here
notes: DNA SELEX 2 aptamer clone
B18: AMX238.H9: DNA SELEX 2 aptamer clone (nucleic acid)
DNA: B17 DNA with C51T
modifications: DNA, backbone not given here
notes: DNA SELEX 2 aptamer clone
B19: AMX237.B1: DNA SELEX 2 aptamer clone (nucleic acid)
chain: B1 chain with T32A, T34A, C48T, C52T
modifications: DNA, backbone not given here
notes: DNA SELEX 2 aptamer clone
B20: AMX238.A3: DNA SELEX 2 aptamer clone (nucleic acid)
DNA: CTACCTACGATCTGACTAGCTCAAAGTATTACTTATTGGCAATAAGTCGTTTACTCTATAGCTTACTCTCATGTAGTTCC
modifications: DNA, backbone not given here
notes: DNA SELEX 2 aptamer clone
B21: AMX237.C4: DNA SELEX 2 aptamer clone (nucleic acid)
DNA: CTACCTACGATCTGACTAGCTTTCAGTCTTCCACATTTATAGGGTTTGGCATTGGGTCTGGCTTACTCTCATGTAGTTCC
modifications: DNA, backbone not given here
notes: DNA SELEX 2 aptamer clone
B22: AMX237.E5: DNA SELEX 2 aptamer clone (nucleic acid)
DNA: B21 DNA with C32T
modifications: DNA, backbone not given here
notes: DNA SELEX 2 aptamer clone
B23: AMX237.F1: DNA SELEX 2 aptamer clone (nucleic acid)
DNA: B21 DNA with A35G
modifications: DNA, backbone not given here
notes: DNA SELEX 2 aptamer clone
B24: AMX237.F5: DNA SELEX 2 aptamer clone (nucleic acid)
DNA: B21 DNA with C24T
modifications: DNA, backbone not given here
notes: DNA SELEX 2 aptamer clone
B25: AMX238.H11: DNA SELEX 2 aptamer clone (nucleic acid)
DNA: B21 DNA with C31T
modifications: DNA, backbone not given here
notes: DNA SELEX 2 aptamer clone
B26: AMX237.G2: DNA SELEX 2 aptamer clone (nucleic acid)
DNA: B21 DNA with C31T, C34T
modifications: DNA, backbone not given here
notes: DNA SELEX 2 aptamer clone
B27: AMX238.A12: DNA SELEX 2 aptamer clone (nucleic acid)
DNA: CTACCTACGATCTGACTAGCCAGTTCTGGGAAAAATTATTTTTTTATTTCGATCGTATATGCTTACTCTCATGTAGTTCC
modifications: DNA, backbone not given here
notes: DNA SELEX 2 aptamer clone
B28: AMX236.C9: DNA SELEX 2 aptamer clone (nucleic acid)
chain: B27 DNA with A59T
modifications: DNA, backbone not given here
notes: DNA SELEX 2 aptamer clone
B29: AMX237.H5: DNA SELEX 2 aptamer clone (nucleic acid)
DNA: CTACCTACGATCTGACTAGCTCCAGTGTTTCATTTAATAACCGTGCGGTGCCTCCGTGAGCTTACTCTCATGTAGTTCC
modifications: DNA, backbone not given here
notes: DNA SELEX 2 aptamer clone
B30: AMX236.H1: DNA SELEX 2 aptamer clone (nucleic acid)
chain: CTACCTACGATCTGACTAGCCTCAGATTGACTCCGGCCGACTTGTTTTAATCTTCTGAGTGCTTACTCTCATGTAGTTCC
modifications: DNA, backbone not given here
notes: DNA SELEX 2 aptamer clone
B31: AMX236.F7: DNA SELEX 2 aptamer clone (nucleic acid)
chain: CTACCTACGATCTGACTAGCCCCCACTTATCGTGTACCTTATGATATGTCGAATACTCTTGCTTACTCTCATGTAGTTCC
modifications: DNA, backbone not given here
notes: DNA SELEX 2 aptamer clone
B32: AMX236.B3: DNA SELEX 2 aptamer clone (nucleic acid)
chain: CTACCTACGATCTGACTAGCCTTACCTATTCCCTTCTGCGGAATACGTCGAGTACTATGCTTACTCTCATGTAGTTCC
modifications: DNA, backbone not given here
notes: DNA SELEX 2 aptamer clone
B33: AMX238.D9: DNA SELEX 2 aptamer clone (nucleic acid)
DNA: CTACCTACGATCTGACTAGCCAGTTCTGGGAAAAATCATTTTTTATTTCGATCGTATTTGCTTACTCTCATGTAGTTCC
modifications: DNA, backbone not given here
notes: DNA SELEX 2 aptamer clone

The molecules below were run on full length human vWF (assay: 3-point dot blot screen, full length human vWF). Settings: 20 nM full length human vWF, ratio of fraction of aptamer bound with target protein to fraction bound without protein.
Assay type: binding
Description: When a significant positive ratio of binding of DNA in the presence of human or rabbit vWF A1 domain versus in the absence of protein was seen, the pools were cloned using the TOPO TA cloning kit (Invitrogen Cat. #45-0641, Carlsbad, Calif.) according to the manufacturer's instructions. Round 7 and 11 pool templates were cloned and sequenced (218 total sequences), producing 146 unique clones within 12 sequence families of which sequences from six families show vWF target binding activity. All unique clones were assayed twice in a 3-point dot blot screen (no protein target control, 20 nM full length human vWF (Calbiochem Cat. #681300, La Jolla, Calif.), or 20 nM rabbit vWF A1 domain. The data is presented in the third and fourth columns of Table 17 below as the ratio of the fraction of the aptamer bound to the nitrocellulose in the presence of the target protein to the fraction of aptamer bound in the absence of the target protein.

Molecule	Screen- Human/No Protein
B1	2.02
B2	1.41
B3	1.31
B4	1.99
B5	1.71
B6	1.21
B7	1.70
B8	1.03
B9	1.05
B10	0.76
B11	1.13
B12	0.92
B13	0.85
B14	1.06
B15	1.18
B16	0.93
B17	1.09

Molecule	Screen- Human/No Protein
B18	1.11
B19	2.00
B20	1.36
B21	0.97
B22	0.97
B23	0.98
B24	0.99
B25	0.98
B26	1.02
B27	1.23
B28	1.24
B29	1.63
B30	1.10
B31	1.18
B32	1.54
B33	1.22

These molecules were tested on rabbit vWF A1 domain (SEQ ID NO 6) (assay: 3-point dot blot screen, rabbit vWF A1 domain). Settings: 3-point dot blot screen, 20 nM rabbit vWF A1 domain; ratio of fraction of aptamer bound with target protein to fraction bound without protein.
Assay type: binding
Procedure, shortened: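 Rabbit vWF A1 domain binding was screened by dot blot using three conditions: no target protein, human vWF, and rabbit vWF A1 domain at 100 nM (20 nM in the screen run twice). Radiolabeled aptamer bound to nitrocellulose was quantified, and results are expressed as the ratio of bound fraction with protein to bound fraction without protein.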

Sequence of rabbit vWF A1 domain (SEQ ID NO 6) (as listed by the source): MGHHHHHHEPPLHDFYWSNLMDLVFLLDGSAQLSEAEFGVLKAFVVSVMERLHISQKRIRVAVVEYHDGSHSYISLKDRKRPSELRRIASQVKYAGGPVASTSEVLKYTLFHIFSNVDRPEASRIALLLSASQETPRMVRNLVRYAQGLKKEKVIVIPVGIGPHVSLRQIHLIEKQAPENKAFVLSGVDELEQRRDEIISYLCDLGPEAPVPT

Molecule	Screen Rabbit/No Protein
B1	2.02
B2	1.48
B3	1.49
B4	2.24
B5	1.94
B6	1.41
B7	1.72
B8	3.28
B9	4.40
B10	3.47
B11	4.67
B12	3.47
B13	4.54
B14	5.77
B15	5.36
B16	3.59
B17	1.39

Molecule	Screen Rabbit/No Protein
B18	1.32
B19	2.10
B20	1.03
B21	1.31
B22	1.15
B23	1.22
B24	1.22
B25	1.14
B26	1.16
B27	0.99
B28	1.00
B29	1.61
B30	1.14
B31	1.20
B32	1.41
B33	0.97
